Laboratory results published in publication PMC7393355, “A FRET-based screening method to detect potential inhibitors of the binding of CNNM3 to PRL2” (Scientific Reports, 2020).

Key:
[1] = target: T1, non-fluorescence protein-tagged PRL2 (human, UniProt Q12974-1 1-167); experiment: ITC; cell 20 uM PRL2, syringe 200 uM CNNM3 CBS protein, 25 C, 20 mM Tris-HCl pH 7.0, 50 mM NaCl, 1 mM TCEP; conditions: both partners purified
T1 construct: human PRL2, NP_001356788.1, residues 1-167; Subcloned into pET28a; the limits 1-167 are printed for human PRL2 in the same paragraph; also called non-CyPet-tagged PRL2; source: E. coli Rosetta (DE3), purified (Ni-NTA, SEC)
T1 sequence (looked up): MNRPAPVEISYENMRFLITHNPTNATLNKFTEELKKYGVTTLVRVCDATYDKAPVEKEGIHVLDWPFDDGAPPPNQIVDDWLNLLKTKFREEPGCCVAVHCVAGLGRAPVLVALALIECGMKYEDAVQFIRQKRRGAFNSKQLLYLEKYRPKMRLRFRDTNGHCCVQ

[2] = target: T2, PRL2 (residues 1-167) with CyPet at its N-terminus (human, UniProt Q12974-1 1-167); experiment: FRET or BRET; 30 nM CyPet-PRL2 mixed with serial dilutions of CNNM3 CBS-YPet (0-300 nM) in 96-well plates, TBS (50 mM Tris-HCl pH 8.0, 150 mM NaCl), R.T. 1 h, excitation 435 nm, emission 530 nm; conditions: both partners purified
T2 construct: human PRL2 (phosphatase of regenerating liver 2), NP_001356788.1, residues 1-167; GS linker between CyPet and PRL2; pET22c derivative; Methods and discussion sometimes call it YPet-PRL2; also called CyPet-PRL2; CyPet-PRL2 WT; source: E. coli Rosetta (DE3), purified (Ni-NTA, SEC); not shown: CyPet (monomeric mutation A206K), N-terminal, kept
T2 sequence (looked up): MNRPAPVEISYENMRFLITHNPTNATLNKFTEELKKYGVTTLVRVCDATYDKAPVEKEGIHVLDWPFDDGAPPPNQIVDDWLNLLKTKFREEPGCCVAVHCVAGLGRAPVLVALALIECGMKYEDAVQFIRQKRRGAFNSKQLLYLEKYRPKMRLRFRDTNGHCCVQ

B1: non-YPet-tagged CNNM3 CBS domain (domain or fragment, human, UniProt Q8NE01 301-452, looked up)
chain: YSDLSKGVLRCRTVEDVLTPLEDCFMLDASTVLDFGVLASIMQSGHTRIPVYEEERSNIVDMLYLKDLAFVDPEDCTPLSTITRFYNHPLHFVFNDTKLDAVLEEFKRGKSHLAIVQKVNNEGEGDPFYEVLGLVTLEDVIEEIIRSEILDE
notes: CBS domain of human CNNM3, XP_011509259.1, residues 301-452; Subcloned into pET28a; the limits 301-452 are printed for the CBS domain in the same paragraph; also called non-fluorescence-tagged CNNM3; CNNM3 CBS protein; source: E. coli Rosetta (DE3), purified (Ni-NTA, anion exchange)
[1]
  Kd: 15.2 ± 5 nM

B2: CNNM3 CBS domain (residues 301-452) with YPet at its C-terminus (domain or fragment, human, UniProt Q8NE01 301-452, looked up)
chain: YSDLSKGVLRCRTVEDVLTPLEDCFMLDASTVLDFGVLASIMQSGHTRIPVYEEERSNIVDMLYLKDLAFVDPEDCTPLSTITRFYNHPLHFVFNDTKLDAVLEEFKRGKSHLAIVQKVNNEGEGDPFYEVLGLVTLEDVIEEIIRSEILDE
notes: CBS domain of human CNNM3 (cyclin M3), XP_011509259.1, residues 301-452; GS linker between the CBS domain and YPet; pET22c derivative; Methods and discussion sometimes call it CNNM3 CBS-CyPet; also called CNNM3-YPet; CNNM3 CBS-YPet; source: E. coli Rosetta (DE3), purified (Ni-NTA, anion exchange); not shown: YPet, C-terminal, kept
[2]
  Kd: 108 ± 16 nM
